Columns and labels:
Assay in all cases: cell_activity
[1] = system: ZFP3:G:D3A (synthetic construct); conditions: triple combination with ZFP8:G:K and ZFP6:G:hD3L; not tested alone
[2] = system: ZFP6:G:hD3L (synthetic construct); conditions: triple combination with ZFP8:G:K and ZFP3:G:D3A; not tested alone
[3] = system: ZFP8 (Pcsk9 ZFP, KRAB/DNMT3 effector fusions) (synthetic construct); conditions: upper end of 1.5-17 range for bi-partite ZFP8 ETRs in Hepa 1-6 Pcsk9tdTomato; tri-partite 2-8 fold; binding inferred from silencing

ZFP3:G:D3A (synthetic construct), sequence (chain, as listed by the source): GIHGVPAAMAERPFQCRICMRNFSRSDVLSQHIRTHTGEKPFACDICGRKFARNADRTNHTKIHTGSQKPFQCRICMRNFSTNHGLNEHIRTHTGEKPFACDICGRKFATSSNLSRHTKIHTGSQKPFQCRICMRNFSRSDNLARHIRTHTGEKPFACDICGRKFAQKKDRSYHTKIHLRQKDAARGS
ZFP6:G:hD3L (synthetic construct), sequence (chain, as listed by the source): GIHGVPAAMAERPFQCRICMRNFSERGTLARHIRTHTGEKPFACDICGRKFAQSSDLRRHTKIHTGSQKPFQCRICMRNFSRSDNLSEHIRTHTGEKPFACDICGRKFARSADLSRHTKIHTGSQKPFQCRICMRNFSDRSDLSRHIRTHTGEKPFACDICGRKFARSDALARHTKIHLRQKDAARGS

Pcsk9 promoter CpG island, ZFP3 target site
activity (fold silencing vs ZFPoff) [1]: 15

Pcsk9 promoter CpG island, ZFP6 target site
activity (fold silencing vs ZFPoff) [2]: 15

Pcsk9 promoter CpG island, ZFP8 target site
activity (fold silencing vs ZFPoff) [3]: 17
